The results in this text go back to the supplement of paper PMC10567573.

To fix the notation:
B1: FEM1A (parent)
chain: NIVEYLIQEQPGQEQVAGGEAQPG
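Also: lentivirally expressed fusions sorted by FACS into six bins by GFP to DsRed ratio, PSI derived from sequencing read proportions per bin multiplied by bin number.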

In the data set the parent is B1. The data set can be described thus: protein stability index of a GFP-peptide fusion (GPS, HEK-293T) (PSI 1-6); higher = more stable. As to conditions: c terminus: a fixed tail appended.
In the case of NIWEYLIQEQPGQEQVAGGEAQPG, the protein stability index was 3.67. On to NIDEYLIQEQPGQEQVAGGEAQPG, for which the protein stability index was 5.67. The same measure for NIIEYLIQEQPGQEQVAGGEAQPG: 3.91; for NIHEYLIQEQPGQEQVAGGEAQPG: 5.06; for NITEYLIQEQPGQEQVAGGEAQPG: 4.81. As for NILEYLIQEQPGQEQVAGGEAQPG, the protein stability index came to 3.07. As for NISEYLIQEQPGQEQVAGGEAQPG, the figure is 5.49. The same measure for NIREYLIQEQPGQEQVAGGEAQPG: 5.21. The same measure for NIQEYLIQEQPGQEQVAGGEAQPG: 4.57; for NIPEYLIQEQPGQEQVAGGEAQPG: 5.74; for NIGEYLIQEQPGQEQVAGGEAQPG: 5.37. In the case of NIAEYLIQEQPGQEQVAGGEAQPG, the protein stability index turned out to be 5.13. The same measure for NINEYLIQEQPGQEQVAGGEAQPG: 5.01; for NIFEYLIQEQPGQEQVAGGEAQPG: 4.21; for NICEYLIQEQPGQEQVAGGEAQPG: 5.04. For the variant NIMEYLIQEQPGQEQVAGGEAQPG, the protein stability index came out at 4.2. For NIYEYLIQEQPGQEQVAGGEAQPG, the protein stability index came out at 4.33. On to NIKEYLIQEQPGQEQVAGGEAQPG, for which the protein stability index worked out at 5.05. On to NIEEYLIQEQPGQEQVAGGEAQPG, for which the protein stability index worked out at 5.36. For the variant NSVEYLIQEQPGQEQVAGGEAQPG, the protein stability index was determined as 5.54. As for NVVEYLIQEQPGQEQVAGGEAQPG, the protein stability index worked out at 5.13. NWVEYLIQEQPGQEQVAGGEAQPG: the protein stability index stood at 2.59. For the variant NYVEYLIQEQPGQEQVAGGEAQPG, the protein stability index was 4.59. The same measure for NQVEYLIQEQPGQEQVAGGEAQPG: 5.6. As for NRVEYLIQEQPGQEQVAGGEAQPG, the figure is 5.59; as for NTVEYLIQEQPGQEQVAGGEAQPG, 5.57. In the case of NIVEYCIQEQPGQEQVAGGEAQPG, the protein stability index was 5.11.

As to NIVEYPIQEQPGQEQVAGGEAQPG, the protein stability index amounted to 5.7. Regarding NIVEYGIQEQPGQEQVAGGEAQPG, the protein stability index is 5.51. As for NIVEYEIQEQPGQEQVAGGEAQPG, the figure is 5.82; as for NIVEYVIQEQPGQEQVAGGEAQPG, 5.11. Consider NIVEYAIQEQPGQEQVAGGEAQPG, for which the protein stability index was determined as 5.36. With NIVEYSIQEQPGQEQVAGGEAQPG, the protein stability index came to 5.45. As to NIVEYKIQEQPGQEQVAGGEAQPG, the protein stability index worked out at 5.42. With NIVEYQIQEQPGQEQVAGGEAQPG, the protein stability index is 5.35. Turning to NIVEYWIQEQPGQEQVAGGEAQPG, the protein stability index was 4.44.

On to NIVEYFIQEQPGQEQVAGGEAQPG, for which the protein stability index was 4.71. For NIVEYHIQEQPGQEQVAGGEAQPG, the protein stability index amounted to 5.61. With NIVEYYIQEQPGQEQVAGGEAQPG, the protein stability index came to 5.11. The same measure for NIVEYTIQEQPGQEQVAGGEAQPG: 5.59; for NIVEYMIQEQPGQEQVAGGEAQPG: 4.5.

Turning to NIVEYDIQEQPGQEQVAGGEAQPG, the protein stability index was 5.26. Take NIVEYRIQEQPGQEQVAGGEAQPG: the protein stability index turned out to be 5.16. On to NIVEYIIQEQPGQEQVAGGEAQPG, for which the protein stability index was 4.63. Take NIVEYNIQEQPGQEQVAGGEAQPG: the protein stability index came out at 5.71. Take NIVEYLIQEQPNQEQVAGGEAQPG: the protein stability index was determined as 4.5. As to NIVEYLIQEQPKQEQVAGGEAQPG, the protein stability index is 4.19. The same measure for NIVEYLIQEQPEQEQVAGGEAQPG: 4.73. Turning to NIVEYLIQEQPCQEQVAGGEAQPG, the protein stability index is 4.03. For NIVEYLIQEQPFQEQVAGGEAQPG, the protein stability index came out at 3.09.

With NIVEYLIQEQPHQEQVAGGEAQPG, the protein stability index was found to be 4.24. For NIVEYLIQEQPIQEQVAGGEAQPG, the protein stability index came to 3.86. Regarding NIVEYLIQEQPLQEQVAGGEAQPG, the protein stability index is 3.44. For the variant NIVEYLIQEQPMQEQVAGGEAQPG, the protein stability index stood at 4.03.

For the variant NIVEYLIQEQPDQEQVAGGEAQPG, the protein stability index amounted to 4.69. As for NIVEYLIQEQPAQEQVAGGEAQPG, the protein stability index was 3.83.

As for NIVEYLIQEQKGQEQVAGGEAQPG, the protein stability index was determined as 3.74. On to NIVEYLIQEQVGQEQVAGGEAQPG, for which the protein stability index worked out at 3.28.

Take NIVEYLIQEQYGQEQVAGGEAQPG: the protein stability index worked out at 2.65. As to NIVEYLIQEQTGQEQVAGGEAQPG, the protein stability index is 3.88. For the variant NIVEYLIQEQMGQEQVAGGEAQPG, the protein stability index turned out to be 2.6. Turning to NIVEYLIQEQAGQEQVAGGEAQPG, the protein stability index came to 3.98.

NIVEYLIQEQGGQEQVAGGEAQPG: the protein stability index worked out at 3.89. Consider NIVEYLIQEQHGQEQVAGGEAQPG, for which the protein stability index was found to be 3.6. Turning to NIVEYLIQEQLGQEQVAGGEAQPG, the protein stability index is 2.21.

Consider NIVEYLIQEQIGQEQVAGGEAQPG, for which the protein stability index was determined as 2.65. As for NIVEYLIQEQCGQEQVAGGEAQPG, the figure is 3.11; as for NIVEYLIQEQNGQEQVAGGEAQPG, 3.8; as for NIVEYLIQEQDGQEQVAGGEAQPG, 4.47. As for NIVEYLIQEQFGQEQVAGGEAQPG, the figure is 2.75; as for NIVEYLIQEQWGQEQVAGGEAQPG, 2.13; as for NIVEYLIQEQSGQEQVAGGEAQPG, 3.96. As for NIVEYLIQEQEGQEQVAGGEAQPG, the protein stability index was found to be 4.27. Take NIVEYLIQEQRGQEQVAGGEAQPG: the protein stability index stood at 3.42. As for NIVEYLIQEQQGQEQVAGGEAQPG, the protein stability index came out at 3.69.

Turning to NIVEYLNQEQPGQEQVAGGEAQPG, the protein stability index is 5.3. For NIVEYLKQEQPGQEQVAGGEAQPG, the protein stability index came to 5.17.

Turning to NIVEYLWQEQPGQEQVAGGEAQPG, the protein stability index came out at 3.95.

In the case of NIVEYLLQEQPGQEQVAGGEAQPG, the protein stability index came to 3.69. Take NIVEYLPQEQPGQEQVAGGEAQPG: the protein stability index was 5.71. The same measure for NIVEYLHQEQPGQEQVAGGEAQPG: 4.74; for NIVEYLFQEQPGQEQVAGGEAQPG: 4.14; for NIVEYLVQEQPGQEQVAGGEAQPG: 4.43. With NIVEYLCQEQPGQEQVAGGEAQPG, the protein stability index was 4.78. On to NIVEYLGQEQPGQEQVAGGEAQPG, for which the protein stability index was found to be 4.55. Turning to NIVEYLQQEQPGQEQVAGGEAQPG, the protein stability index stood at 5.3. Regarding NIVEYLEQEQPGQEQVAGGEAQPG, the protein stability index is 5.3. The same measure for NIVEYLMQEQPGQEQVAGGEAQPG: 4.25; for NIVEYLAQEQPGQEQVAGGEAQPG: 5.14; for NIVEYLRQEQPGQEQVAGGEAQPG: 4.92. Take NIVEYLTQEQPGQEQVAGGEAQPG: the protein stability index is 4.65. NIVEYLSQEQPGQEQVAGGEAQPG: the protein stability index turned out to be 4.75.

As to NIVEYLYQEQPGQEQVAGGEAQPG, the protein stability index amounted to 4.33. Regarding NIVEYLDQEQPGQEQVAGGEAQPG, the protein stability index turned out to be 5.39.
